Measurements reported in patent US20170260284A1 (NATIONAL CANCER CENTER, published 2017).
Residue numbers refer to the chain shown, from its start.

T1: human transmembrane protein 180 (TMEM-180), endogenous on human cancer cells (human, UniProt Q14CX5 1-517)
T1 construct: Membrane protein expressed endogenously by human colon cancer lines (DLD-1 and others), brain tumor lines and colon cancer tissue; also called TMEM-180 on DLD-1 cells
T1 sequence: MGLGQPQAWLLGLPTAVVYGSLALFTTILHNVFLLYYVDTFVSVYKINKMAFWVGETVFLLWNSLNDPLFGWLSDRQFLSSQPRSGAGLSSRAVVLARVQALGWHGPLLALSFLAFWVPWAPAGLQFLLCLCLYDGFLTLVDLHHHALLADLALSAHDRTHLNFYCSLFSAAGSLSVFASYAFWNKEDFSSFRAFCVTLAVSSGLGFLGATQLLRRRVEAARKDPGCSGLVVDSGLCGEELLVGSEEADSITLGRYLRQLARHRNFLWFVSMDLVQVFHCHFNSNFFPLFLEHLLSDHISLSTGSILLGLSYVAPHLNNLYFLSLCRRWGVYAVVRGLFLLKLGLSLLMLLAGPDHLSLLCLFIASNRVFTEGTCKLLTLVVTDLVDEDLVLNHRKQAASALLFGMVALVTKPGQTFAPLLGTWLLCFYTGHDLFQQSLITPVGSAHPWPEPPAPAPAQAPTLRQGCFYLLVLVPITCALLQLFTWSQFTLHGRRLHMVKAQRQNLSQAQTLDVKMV

B1: anti-TMEM-180 antibody clone 212 (rat IgM) (antibody, V domains shown)
VH: EVQLVESGGGLVQPGNSLKLSCAASGFTFSDYAMAWVRQSPKKGLEWVATIIYDGSSTYYRDSVKGRFTISRDNAKSTLYLQMDSLRSEDTATYYCATHWYWYFDFWGPGTMVTVSS
VL: DIQMTQSPASLSASLGETVSIECLASEGISNDLAWYQQKSGKSPQLLIYAASRLQDGVPSRFSGSGSGTRYSLKISGMQPEDEADYFCQQSYKYPLTFGSGTKLEIK
notes: Rat IgM from hybridoma; the entries appear to include a leader and no cleavage site is stated
B2: anti-TMEM-180 antibody clone 101 (rat IgM) (antibody, V domains shown)
VH: QVQLKETGPGLVQPTQTLSITCTVSGFSLTSYYMQWVRQTPGKGLEWMGFIRSGGSTEYNSEFKSRLSISRDTSKNQVFLKMNSLKTEDTGVYYCARAFYGGYYFDYWGQGVMVTVSS
VL: DIVMTQSPTSISISVGERVTMNCKASQNVGSNVDWYQQKTGQSPKLLIYKASNRYTGVPDRFTGSGSGTDFTFTISNMQAEDLAVYYCMQSNTKYTFGAGTKLELK
notes: as for B1
B3: anti-TMEM-180 antibody clone 382 (rat IgG) (antibody, V domains shown)
VH: EVQLVESGGGLVQPGRSLKLSCAASGFTFSNYGMHWIRQAPTKGLEWVASISPSGGSTYYRDSVKGRFTISRDNAKSTLYLQMDSLRSEDTATYYCATSASITAYYYVMDAWGQGASVTVSS
VL: DIVMTQSPTSMSISVGDRVTMNCKASQNVGSNVDWYQQKTGQSPKLLIYKASNRYTGVPDRFTGSGSGTDFTFTISNMQAEDLAVYYCMQSNSYPPTFGGGTKLELR
notes: the entries appear to include a leader
B4: anti-TMEM-180 antibody clone 699 (rat IgM) (antibody, V domains shown)
VH: QVQLQQSGAELTKPGSSVKISCKASGYTFTSYDISWIKQRPGQALEWIGAINPGSGGTGYNEKFKGKATLTVDKSSSTAFMQLSSLTPEDTAVYYCARIHGGYRYWFAYWGQGTLVTVSS
VL: EIVLTQSPTTMAASPGEKVTITCRASSSVSYMHWFQQKSGTSPKPWIYDTSKLASGVPDRFSGSGSGTSYSLTISSMEAEDAATYYCLQRSSYPPTFGAGTKLELK
notes: as for B3
B5: anti-TMEM-180 antibody clone 1052 (rat IgM) (antibody, V domains shown)
VH: QVQLKESGPGLMQPSETLSLTCTVSGFSLTSNGVGWVRQPLGKGLVWMGTIWTGGGTNYNSGVQSRLSISRDTSKSQVFLKMNSLQPEDTGTYYCAREYMGFDYWGQGVMVTVSS
VL: NTVMTQSPTSMFTSVGDRVTMSCKASQNVGINVGWYQQKTGQSPKRLIYWASNRDTGVPDRFTGSGSGTDFTLTISNMQAEDPAIYYCLQHNSYPRTFGGGTKLELK
notes: as for B3
B6: anti-TMEM-180 antibody clone 1105 (rat IgM) (antibody, V domains shown)
VH: B5 VH with T53S, G62A, S70T, Y99E, M100K, D103A, V109T, M110L
VL: B5 VL with T2I, F12S, T97A, K107R
notes: as for B3
B7: anti-TMEM-180 antibody clone 129 (rat IgG) (antibody, V domains shown)
VH: QIQLVQSGPELKKPGESVKISCKASGYTFTDCALNWVKQAPGNGLKWMGWINTQTGKPTYADDFKQRFVFSLETSASTAYLQINNLNIEDTATYFCTREDYGYFDYWGQGVMVTVSS
VL: DIQMTQSPPSLSASLGDKVTITCQASQNINKFIAWYQQKPGKAPRHLVHYTSTLVSGTPSRFSGSGSGRDYSFSISNVESEDIASYYCLQYDNLRTFGGGTKLELK
notes: as for B3
B8: rat IgM antibody clone 98 (anti-TMEM-180 antibody clone 98) (antibody, V domains shown)
VH: QVQLKESGPGLVQPSQTLSLTCTVSGFSLTRYNVHWVRQPTGKGLEWMGVIWTGGSTDYNSALKSRLSISRDTSKSQVFLKMNSLQTEDIATYYCARDLGYWGQGVMVTVSS
VL: DIVMTQTPLSLSVAIGQSASISCKSSQSLKYRDGKTYLNWVFQSPGQSPKRLIYQVSKLDSGVPDRFSGTGSETDFTLKISRVEAEDLGVYYCCQGSYSPHTFGAGTKLELK
notes: Rat IgM from hybridoma, used as culture supernatant; also called IgM 98; Anti-TMEM-180 IgM rat antibody (clone 98)
B9: rat-human chimeric antibody clone 98 (antibody, V domains shown)
VH: B8 VH
VL: B8 VL
notes: Used as culture supernatant diluted two-fold; also called human chimeric IgG antibody

biological target: T1, human transmembrane protein 180 …; test: flow cytometry on colon cancer and brain tumor cell lines

Binding result, binds:
B1
B2

biological target: T1, human transmembrane protein 180 …; test: flow cytometry, hybridoma supernatant on DLD-1 cells (selection of clones)

Binding result, binds:
B3
B4
B5
B6
B7
B8

biological target: T1, human transmembrane protein 180 …; test: flow cytometry, DLD-1 parent line against TMEM-180 knockout line; culture supernatant diluted two-fold
Method: The plate was centrifuged for 3 minutes at 440×g and 4° C. followed by removing the supernatant, adding antibody-producing hybridoma culture supernatant or antibody solution to the cell pellet at 50 μL/well and suspending therein. After allowing to react for 45 minutes on ice, the plate was washed three times with a mixture of 0.1% BSA, 2 mM EDTA and PBS at 200 μL/well. The supernatant was removed and secondary antibody was added to the cell pellet at 50 μL/well followed by suspending the cells therein. AlexaFluor 647 goat anti-rat IgG (H-L) (Life Technologies Corporation) was used for the secondary antibody after diluting 400-fold with a mixture of 0.1% BSA, 2 mM EDTA and PBS. After allowing to react for 45 minutes on ice, the plate was washed three times with a mixture of 0.1% BSA, 2 mM EDTA and PBS at 200 μL/well. […] The cells stained in this manner were measured using a flow cytometer such as the Guava easyCyte 8HT (Merck Millipore Corporation) followed by analysis of the resulting data using FlowJO (Tomy Digital Biology Co., Ltd.). […]
Flow cytometry was carried out in accordance with the procedure described in the above-mentioned section 3. […] Furthermore, antibody concentration in the hybridoma culture supernatant was measured by rat IgM-specific ELISA (Bethyl Laboratories).

Binding result, binds:
B9
